Tests used:
[1] = molecular target: Receptor comprising gp130 (B10G) and LIF-R (pHLIFR-65) co-expressed on COS-7 cells (human); experiment: Scatchard analysis of 125I-oncostatin M binding to COS-7 cells co-transfected with B10G and pHLIFR-65 (curve A of FIG. 2), phthalate oil separation
[2] = molecular target: High affinity oncostatin M receptors on non-transfected COS-7 cells; experiment: Scatchard analysis of 125I-oncostatin M binding to non-transfected COS-7 cells (FIG. 3 experiment), phthalate oil separation
[3] = molecular target: T1, Human gp130 encoded by plasmid B10G, expressed on COS-7 cells (human); experiment: Scatchard analysis of 125I-oncostatin M binding to COS-7 cells transfected with B10G alone (FIG. 3 experiment), phthalate oil separation
T1 sequence: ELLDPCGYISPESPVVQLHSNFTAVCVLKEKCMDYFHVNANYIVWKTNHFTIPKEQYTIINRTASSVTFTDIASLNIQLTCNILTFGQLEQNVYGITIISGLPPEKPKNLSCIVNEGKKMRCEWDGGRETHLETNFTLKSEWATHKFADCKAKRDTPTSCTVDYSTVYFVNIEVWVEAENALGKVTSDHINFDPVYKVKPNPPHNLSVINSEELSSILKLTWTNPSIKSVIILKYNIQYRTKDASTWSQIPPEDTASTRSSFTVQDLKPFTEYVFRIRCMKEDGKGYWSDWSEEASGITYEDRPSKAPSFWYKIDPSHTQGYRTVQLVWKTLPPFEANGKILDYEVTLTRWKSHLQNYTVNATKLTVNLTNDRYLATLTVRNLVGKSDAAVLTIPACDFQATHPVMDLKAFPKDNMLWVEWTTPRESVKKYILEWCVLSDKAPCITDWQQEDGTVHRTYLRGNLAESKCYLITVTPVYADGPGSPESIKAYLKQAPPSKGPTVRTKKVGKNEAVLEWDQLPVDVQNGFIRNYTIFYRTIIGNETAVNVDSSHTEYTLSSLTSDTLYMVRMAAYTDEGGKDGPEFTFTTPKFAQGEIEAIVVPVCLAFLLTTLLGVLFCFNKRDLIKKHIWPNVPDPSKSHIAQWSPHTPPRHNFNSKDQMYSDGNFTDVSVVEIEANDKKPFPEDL

Kd [1]: 0.24 nM
Kd [2]: 0.36 nM
Kd [3]: 7.7 nM
B1: Oncostatin M (ligand, UniProt P13725 26-221, looked up, species assumed)
Oncostatin-M: AAIGSCSKEYRVLLGQLQKQTDLMQDTSRLLDPYIRIQGLDVPKLREHCRERPGAFPSEETLRGLGRRGFLQTLNATLGCVLHRLADLEQRLPKAQDLERSGLNIEDLEKLQMARPNILGLRNNIYCMAQLLDNSDTAEPTKAGRGASQPPTPTPASDAFQRKLEGCRFLHGYHRFMHSVGRVFSKWGESPNRSRR
modifications: 125I label in some uses
